Laboratory results from ChEMBL document CHEMBL5678797, “AZD7762, a novel checkpoint kinase inhibitor, drives checkpoint abrogation and potentiates DNA-targeted therapies” (Mol Cancer Ther, 2008).

Substrate: NC(=O)Nc1cc(-c2cccc(F)c2)sc1C(=O)N[C@H]1CCCNC1
Conditions: Homo sapiens; Insect cell; time 20.0 min

B1: Serine/threonine-protein kinase Chk1 (Homo sapiens), O14757 (protein)
chain: MAVPFVEDWDLVQTLGEGAYGEVQLAVNRVTEEAVAVKIVDMKRAVDCPENIKKEICINKMLNHENVVKFYGHRREGNIQYLFLEYCSGGELFDRIEPDIGMPEPDAQRFFHQLMAGVVYLHGIGITHRDIKPENLLLDERDNLKISDFGLATVFRYNNRERLLNKMCGTLPYVAPELLKRREFHAEPVDVWSCGIVLTAMLAGELPWDQPSDSCQEYSDWKEKKTYLNPWKKIDSAPLALLHKILVENPSARITIPDIKKDRWYNKPLKKGAKRPRVTSGGVSESPSGFSKHIQSNLDFSPVNSASSEENVKYSSSQPEPRTGLSLWDTSPSYIDKLVQGISFSQPTCPDHMLLNSQLLGTPGSSQNPWQRLVKRMTRFFTKLDADKSYQCLKETCEKLGYQWKKSCMNQVTISTTDRRNNKLIFKVNLLEMDDKILVDFRLSKGDGLEFKRHFLKIKGKLIDIVSSQKIWLPAT
Km: 80 µM
